{"source": "patent US20240199758A1", "about": "“METHOD FOR ALLOWING IMMUNE CELLS INFILTRATION IN TUMORS” (Alethia Biotherapeutics Inc., priority 2021, published 2024)", "molecules": {"B1": {"name": "murine 16B5: murine anti-clusterin (anti-sCLU) monoclonal antibody 16B5 used in the mouse studies; VL SEQ ID NO:7, VH SEQ ID NO:8 (antibody, V domains shown)", "VH": "EVQLQQSGAELVKPGASVRLSCTTSGFNIKDIYMHWVKQRPEQGLEWIGRIDPAYGNTKYDPKFQGKATITADTSSNTAYLQLSSLTSEDTAVYYCARRYDTAMDYWGQGTSVTVSS", "VL": "DIVMSQSPSSLAVSAGEKVTMSCKSSQSLLNSRTRKNYLAWYQQKPGQSPKLLIYWASTRESGVPDRFTGSGSGTDFTLTISSVQAEDLAVYYCKQSYNLWTFGGGTKLEFK", "modifications": "Murine 16B5 VH; Murine 16B5 VL"}}, "assay_type_in_all_cases": "in vivo, Balb/c mice", "key": {"[1]": {"tested_on": "4T1 mouse mammary carcinoma cells", "assay": "4T1 model: number of metastatic lung nodules", "details": "Day 37", "experimental": "(§1) Five groups, each consisting of 10 female Balb/c mice were assigned to this study (see Table 5 below). All animals received subcutaneous implantation of 4T1 mouse mammary carcinoma cells in the 4th inguinal mammary gland. Treatment was initiated on the day of implantation (defined as Day 1). Animals from Group 1 (Gr. 1) received IP treatment of saline vehicle control twice a week for the duration of the study. Animals from Group 2 (Gr. 2) received 10 mg/kg of docetaxel weekly for five weeks by IP administration. Animals from Group 3 (Gr. 3) received 10 mg/kg of docetaxel weekly for two weeks and 10 mg/kg of AB-16B5, twice weekly for five weeks. Animals from Group 4 (Gr. 4) received 10 mg/kg of docetaxel weekly and 5 mg/kg of 16B5 twice weekly each over the course of a five weeks treatment. Animals from Group 5 (Gr. 5) received AB-16B5 twice weekly for five weeks. On Day 36, the primary tumors were excised and on Day 37, the animals were sacrificed and the number of grossly visible metastatic nodules on the surface of the lungs was counted."}, "[2]": {"tested_on": "4T1 primary tumors", "assay": "4T1 model: CD45+ immune cells in primary tumors", "experimental": "as §1\nThe primary tumors excised at Day 16 post implantation, were processed with collagenase and hyaluronidase and immune cells were purified by positive selection using magnetic latex beads coated with an anti-CD45 antibody. […]"}, "[3]": {"tested_on": "4T1 lung metastases", "assay": "4T1 orthotopic model: immunohistochemistry of lung metastases", "excerpt": "Balb/c mice were orthotopically implanted with 5×10^5 4T1 cells in the 4′ mammary fat pad. Animals received IP saline treatment thrice weekly. The primary tumor was surgically removed at Day 16 post-implantation. The animals were sacrificed at Day 36 and the lungs were excised. Tissues were fixed in paraformaldehyde and processed for paraffin embedding. Tissue sections were probed with anti-mouse CD3, anti-mouse CD8 and anti-mouse B220 antibodies. […] Results presented in FIG. 1 indicate that the 4T1 lung metastases create an immune cold microenvironment which prevents the infiltration of B and T lymphocytes in tumors. Delineated regions indicate that CD3 and CD8 T lymphocytes are restricted in the tumor margin as a consequence of EMT.\nAnimals bearing 4T1 tumors were treated with the AB-16B5 antibody (murine 16B5) thrice a week IP at 10 mg/kg. The primary tumor was surgically removed at Day 16 post-implantation. The animals were sacrificed at Day 36 and the lungs were excised. Tissues were fixed in paraformaldehyde and processed for paraffin embedding. Tissue sections were probed with anti-mouse CD3, anti-mouse CD8 and anti-mouse B220 antibodies."}, "[4]": {"tested_on": "4T1 tumor cells", "assay": "INFγ secretion of tumor infiltrating lymphocytes co-cultured with 4T1 cells (ELISA)", "experimental": "(§2) Balb/c mice were orthotopically implanted with 5×10^5 4T1 cells in the 4′ mammary fat pad. Animals received intraperitoneal (IP) AB-16B5 (murine 16B5) 10 mg/kg twice weekly in combination with IP docetaxel 10 mg/kg weekly (Group 15: animals 1501, 1502 and 1503) or IP AB-16B5 10 mg/kg twice weekly (Group 25: […]). The primary tumor was surgically removed at Day 16 post-implantation. The animals were sacrificed at Day 36 and the lungs were excised and each visible lung metastasis was carefully dissected. Each visible metastatic nodule, if any, was excised and processed for a rapid expansion of tumor infiltrating lymphocyte protocol. The metastatic nodules were sectioned into small pieces of 2-3 mm edge that were individually grown in 24 well plates containing culture medium supplemented with FBS, IL2, IL7, ITS (1,000 U/mL IL2, 2.0 ng/mL IL7 and 1× insulin—transferrin—selenium cocktail (Gibco 41400-045)).\nAfter three weeks in culture, 100,000 cells were taken from each of the lymphocyte cultures (six cultures corresponding to three animals from Group 15 and three animals from Group 25) and placed in culture with 100,000 4T1 tumor cells. After overnight co-culture, the supernatant was recovered for INFγ quantification by ELISA."}, "[5]": {"tested_on": "4T1 lung metastases", "assay": "Flow cytometry immunophenotyping of lymphocytes from 4T1 lung metastases", "details": "Day 36 post-implantation, FIG. 4A and FIG. 4B", "experimental": "as §2\nThe lymphocytes were stimulated with anti-CD3 and anti-CD28 monoclonal antibodies. Lymphocytes from each donor animal were pooled and processed for flow cytometry analysis with antibodies against CD45 (lymphocyte common antigen), CD3, CD4, CD8 and CD19 (B-cell biomarker) (FIG. 4A and FIG. 4B). The resulting single cell preparations were initially selected on their size to select those corresponding to immune cells. […]"}, "[6]": {"details": "10 mg/kg IP thrice a week, Day 36"}}, "note": "Several values for one entry are separate records, joined by “and”; a condition that tells them apart may be missing. Equal values may be shown once. Entries after “also recorded” stand apart in the source; their conditions may differ."}
{"molecule": "CC(=O)O[C@@]12CO[C@@H]1C[C@H](O)[C@@]1(C)C(=O)[C@H](O)C3=C(C)[C@@H](OC(=O)[C@H](O)[C@@H](NC(=O)OC(C)(C)C)c4ccccc4)C[C@@](O)([C@@H](OC(=O)c4ccccc4)[C@H]21)C3(C)C", "note": "[docetaxel]", "values": [{"measurement": "metastatic lung nodules", "setting": "[1]; Group 2: docetaxel 10 mg/kg IP 1X/week for 5 weeks", "value": "as many metastatic lung nodules as the saline control group; also recorded: relatively ineffective"}, {"measurement": "CD45+ immune cells in primary tumors", "setting": "[2]; Group 2: docetaxel 10 mg/kg IP 1X/week", "value": "very few CD45+ were present"}]}
{"molecule": "B1", "values": [{"measurement": "infiltration of lung metastases with CD3 and CD8 T cells", "setting": "[3]; [6]", "value": "densely infiltrated with CD3 and CD8 T cells"}, {"measurement": "plasmocytes penetration in tumors", "setting": "[3]; [6]", "value": "evidence of plasmocytes penetration"}, {"measurement": "lung metastases, number and size", "setting": "[3]; 10 mg/kg IP thrice a week, primary tumor removed Day 16, sacrifice Day 36", "value": "fewer and much smaller lung metastases"}, {"measurement": "B and T lymphocytes infiltration in 4T1 lung metastases", "setting": "[3]; FIG. 2A", "value": "Results in B (B220) and T (CD3, CD4, CD8) Lymphocytes Infiltration"}, {"measurement": "metastatic lung nodules", "setting": "[1]; Group 5: AB-16B5 10 mg/kg IP 2X/week for 5 weeks", "value": "less metastatic lung nodules than the saline-control-treated mice"}, {"measurement": "CD45+ immune cells in primary tumors", "setting": "[2]; Group 5: AB-16B5 10 mg/kg IP 2X/week", "value": "more immune cells"}, {"measurement": "INFγ", "setting": "[4]; Group 25 (samples 2501-2503, one value per animal): AB-16B5 10 mg/kg IP twice weekly, overnight co-culture with 4T1 cells", "value": "8538.8 pg/mL and 3770.0 pg/mL and 4538.8 pg/mL"}, {"measurement": "INFγ secretion level of lymphocytes isolated from lung metastatic nodules", "setting": "[4]; in the presence of 4T1 cells", "value": "high levels"}, {"measurement": "infiltration of 4T1 lung metastases by B and T lymphocytes", "setting": "[5]", "value": "infiltrated by B and T lymphocytes"}]}
